{
  "source": "the nanobody polyreactivity screen of Harvey et al. (2022)",
  "data": [
    {"assay": "yeast display, Sf9 membrane polyspecificity reagent, FACS + sequencing; frameworks hold sequencing errors", "outline": "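Galactose induction of a Saccharomyces cerevisiae BJ5465 synthetic nanobody display library ran 36–48 hours. The cells were then stained for 1 hour at 4 °C with 10% biotinylated, detergent-solubilized Sf9 membrane reagent, pulled down on streptavidin microbeads and FACS-sorted into low and high (top ~1%) gates on expression and reagent-binding fluorescence. Labels for polyreactivity follow the gate of origin.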", "values": [
      {"sequence": "QVQLVESGGGLVQAGGSLRLSCAASGSTFPGYAMGWYRQAPGKDRELVAAISKRGGSTRYADSVKGRFTISRDKAKNTVYLQMNSLKPEDTAVYYCNAVYTKRYKYYYTSGYWGQGTQVTVSS", "polyreactivity (PSR sort gate)": "high polyreactivity"},
      {"sequence": "QVQLVESGGGLVQAGGSLRLSCAASGSTFPGYAMGWYRQAPGKERELVAAISWSGGNTYYADSVKGRFTISRDNAKNTVYLQMNSLKPEDTAVYYCNAAGRRYKFDYWGQGTQVSVSS", "polyreactivity (PSR sort gate)": "high polyreactivity"},
      {"sequence": "QVQLVESGGGLVQAGGSLRLSCAASGSTFPGYAMGWYRQAPGKERELVASITSSGDNTYYADSVKGRFTISRDNAKNSVYLQMNSLKPEDTAVYYCAAPTKYRSRRYYWGQGTQVTVSS", "polyreactivity (PSR sort gate)": "high polyreactivity"},
      {"sequence": "QVQLVESGGGLVQAGGSLRLSCAASGSTFPHNPMGCYRQAPGKERELVAAISSIGVRTYYADSVKGRFTISRDNAKNTVYLQMNSLKPEDTAVYYCAARQSQGDRYYYWGHGTQVTVSS", "polyreactivity (PSR sort gate)": "high polyreactivity"},
      {"sequence": "QVQLVESGGGLVQAGGSLRLSCAASGSTFPKNAMGWYRQAPGKERELVAAINTGGSTYYADSVKGRFTISLDNAKYTVYLQMNSLKPEDTAVYYCAARDNYHRDVGHPYDYWGQGTQVTVSS", "polyreactivity (PSR sort gate)": "low polyreactivity"},
      {"sequence": "QVQLVESGGGLVQAGGSLRLSCAASGSTFPKNVMGWYRQAPGKERELVAAINYSGTSTYYADSVKGRFTISRDNAKNTVYLQMNSLKPEDTAVYYCAARFPLVRYNYWGQGTQVTVSS", "polyreactivity (PSR sort gate)": "high polyreactivity"},
      {"sequence": "QVQLVESGGGLVQAGGSLRLSCAASGSTFPKYAMGWYRQAPGKERELVASISVTTGSTYYADSVKGRFTISRDNAKNTVYLQMNSLKPEDTAVYYCAVGRTVAHRFIAGDYWGQGTQVTVSS", "polyreactivity (PSR sort gate)": "high polyreactivity"},
      {"sequence": "QVQLVESGGGLVQAGGSLRLSCAASGSTFPLNAMAWYRHAPGKERELVAAITWSGANTYYADSVKGRFTISRDNAKNTVYLQMNSLKPEDTAVYYCAAGSYAGFAVIGYYYWGQGTQVTVSS", "polyreactivity (PSR sort gate)": "low polyreactivity"},
      {"sequence": "QVQLVESGGGLVQAGGSLRLSCAASGSTFPLYAMGRYRQAPGKERELVAAITSGGGNTYYADSLKGRFTISRDNAKNTVYLQMNSLKPEDTAVYYCAAVGGYKSYYSYEYDYWGQGTQVTVSS", "polyreactivity (PSR sort gate)": "low polyreactivity"},
      {"sequence": "QVQLVESGGGLVQAGGSLRLSCAASGSTFPLYAMGWYRQAPGKERELVAAITTGGGNTYYADSVKGRFTISRDNAKNTVYLQLNSLTPEDTAVYYCAKPYHIGLSGRRTYDYWGQGTQVTVSS", "polyreactivity (PSR sort gate)": "high polyreactivity"},
      {"sequence": "QVQLVESGGGLVQAGGSLRLSCAASGSTFPPNAMGWYRQAPGKERELVAAISASGGRTYYADSVKGRFTISRDNAKNTVYLQMNSLKPEDTAVYYCNARGGRYGRGSSDQLDYYWGQGTQVTVSS", "polyreactivity (PSR sort gate)": "high polyreactivity"},
      {"sequence": "QVQLVESGGGLVQAGGSLRLSCAASGSTFPPNAMGWYRQAPGKERELVADSSDSSTYYADSVKGRFTISRDNAKNTVYLQMNSLKPEDTAVYYCAAADAGLRSKSYGQQYDYWGQGTQVTVSS", "polyreactivity (PSR sort gate)": "low polyreactivity"},
      {"sequence": "QVQLVESGGGLVQAGGSLRLSCAASGSTFPPYAMGWYRQAPGKERELVAAISWSGSGSTYYADSVKGRFTISRDNAKNTVYLQMNSLKPEDTAVYYCAAGYVRVITPAYYYWGQGTQVTVSS", "polyreactivity (PSR sort gate)": "low polyreactivity"},
      {"sequence": "QVQLVESGGGLVQAGGSLRLSCAASGSTFPPYVIGWYRPAPGKERELVAAITWSSGSTYYADSVKGRFTISRDNAKNTVYLQMNSLKPEDTAVYYCAARAYRWGQGTQVTVSS", "polyreactivity (PSR sort gate)": "low polyreactivity"},
      {"sequence": "QVQLVESGGGLVQAGGSLRLSCAASGSTFPPYVMGWYRQAPGKERELVAAISRGGGSTYYADSVKGRFTISRDNAKNTVYLQMNSLKPEDTAVYYCAAKNVYHDDYWGQGTQVTVSS", "polyreactivity (PSR sort gate)": "high polyreactivity"},
      {"sequence": "QVQLVESGGGLVQAGGSLRLSCAASGSTFPQNDMGWYRQAPGKERELVAAITRSAGSTYYADSVKGRFTISRDNAKNTVYLQMNSLKPEDTAVYYCNTGRQRGDGWGQGTQVTVSS", "polyreactivity (PSR sort gate)": "high polyreactivity"},
      {"sequence": "QVQLVESGGGLVQAGGSLRLSCAASGSTFPQNVMGWYRQAPGKERELVAAITRSAGSTYYADSVKGRFTISRDNAKNTVYLQMNSLKPEDTADYYCNTGRQRGDCWGQGTQVTVSS", "polyreactivity (PSR sort gate)": "high polyreactivity"},
      {"sequence": "QVQLVESGGGLVQAGGSLRLSCAASGSTFPQYAMGWYRQAPGKERELVAAISARGDSTSYADSVKGRFTISRDNAKNTVYLQMNSLKPEDTAVYYCNAPSRNGFSVTDTPDGYDYWGQGTQVTVSS", "polyreactivity (PSR sort gate)": "low polyreactivity"},
      {"sequence": "QVQLVESGGGLVQAGGSLRLSCAASGSTFPRNDMGWYRQAPGKERELVAAISRGGSTNYADSVKGRFTISRDNAKNTVYLQMNSLKPEDTAVYYCAAQIFECAYGMDYWGQGTQVTVSS", "polyreactivity (PSR sort gate)": "low polyreactivity"},
      {"sequence": "QVQLVESGGGLVQAGGSLRLSCAASGSTFPRNDMGWYRQAPGKERELVAAISRGGSTNYADSVKGRFTISRDNAKNTVYLQMNSLKPEDTAVYYCAAQIIESAYGMDYWGQGTQVTVSS", "polyreactivity (PSR sort gate)": "low polyreactivity"},
      {"sequence": "QVQLVESGGGLVQAGGSLRLSCAASGSTFPRYAMGWFRQAPGKEREFVAAISRRGGSTYYADSVKGRFTISRDNAKNTVYLQMNSLKPEDTAVYYCANRVRTGSVGNFNYWGQGTQVTVSS", "polyreactivity (PSR sort gate)": "high polyreactivity"},
      {"sequence": "QVQLVESGGGLVQAGGSLRLSCAASGSTFPRYAMGWYRPAPGKERELVAAISSSGRTYYADSVKGRFTISRDNAKNTVYLQMNSLNPEDTAVYYCNAPVARGEASYYWGQGTQVTVSS", "polyreactivity (PSR sort gate)": "high polyreactivity"},
      {"sequence": "QVQLVESGGGLVQAGGSLRLSCAASGSTFPRYAMGWYRQAPGKERELVATITSGGSTYYADSVKGCFTISRDNAKNTFYLQMNSLKPEDTAVYYCAAGYRWTYTSGTYIRYNYWGQVTQVTVSS", "polyreactivity (PSR sort gate)": "high polyreactivity"},
      {"sequence": "QVQLVESGGGLVQAGGSLRLSCAASGSTFPSNAMGWYRQAPGKERELVAAISSGGRTYYADSVKGRFTISRDNAKNTVYLQMKSLKPEDTAVYYCAADTDRRSPFDYWGQGTQVTVSS", "polyreactivity (PSR sort gate)": "high polyreactivity"},
      {"sequence": "QVQLVESGGGLVQAGGSLRLSCAASGSTFPSYAMGGYRPAPGKERELVAAINRSGGSTYYADSVKGRFTISRDNAKNTVYLQMNSLKPEDTAVYYCATGLTTGGGYYWGQGTQVTVSS", "polyreactivity (PSR sort gate)": "high polyreactivity"},
      {"sequence": "QVQLVESGGGLVQAGGSLRLSCAASGSTFPSYAMGWYRQAPGKERELVAAITRSGGRTYYADSVKGRFTISRDNAKNTVYLQMNSLKPEDTAVYYCAADLGRNYDYWGQGTQVTVLS", "polyreactivity (PSR sort gate)": "low polyreactivity"},
      {"sequence": "QVQLVESGGGLVQAGGSLRLSCAASGSTFPTNAMGWYRQAPGKERELVAAISQRGDSTSYADSVKGRFTISRDNAKNTVYLQMNSLKPEDTAVYYCAARPLYSYSQWGYGYWGQGTQVTVSS", "polyreactivity (PSR sort gate)": "high polyreactivity"},
      {"sequence": "QVQLVESGGGLVQAGGSLRLSCAASGSTFPTNTMGWYRQAPGKERELVAAITGGGSTYYADSVKGRFTISRDNAKNTVYLQMNSLKPEDTAVYYCAADDSWFYYGYGYWGQGTQVTVSS", "polyreactivity (PSR sort gate)": "low polyreactivity"},
      {"sequence": "QVQLVESGGGLVQAGGSLRLSCAASGSTFPTYAMGWYRQAPGKERELVAAISFSGARTYYADSVKGRFTISRDNAKNTVYLQMNSLKPEDTAVYYCAKASSYSRRYEYWGQGTQVTVSS", "polyreactivity (PSR sort gate)": "high polyreactivity"},
      {"sequence": "QVQLVESGGGLVQAGGSLRLSCAASGSTFPVYAMGWYRQAPGKERELVAAISWRGDSTYYADSVKGRFTISRDNAKNTVYLQMNSLKPEDTAVYYCAASTGSVVRRYYYWGQGTQVTVSS", "polyreactivity (PSR sort gate)": "high polyreactivity"},
      {"sequence": "QVQLVESGGGLVQAGGSLRLSCAASGSTFPVYAMGWYRQAPGKERELVARISSGSSTNYADSVKGRFTNSRDKAKNTVYLQMNSLKPEDTAVSYCAAQTPRFVWQKGPLDSEEYWGQGTQVTVSS", "polyreactivity (PSR sort gate)": "high polyreactivity"},
      {"sequence": "QVQLVESGGGLVQAGGSLRLSCAASGSTFPVYDMGWYRQAPGKERELVAAITAGVSTNYADSVKGRFTISRDNAKNTVYLQMNSQKPEDTAVYYCAKDFGLLPIRDDYWGQGTQETVSS", "polyreactivity (PSR sort gate)": "low polyreactivity"},
      {"sequence": "QVQLVESGGGLVQAGGSLRLSCAASGSTFPVYVMGWYRQAPGKERELVATITIVVSTKYADSVKGRFTISRDNAKNTVYLQMNSLKPEDTAVYYCAKDDVYRDSYLVFDGEMDYWGQGTQVTVSS", "polyreactivity (PSR sort gate)": "low polyreactivity"},
      {"sequence": "QVQLVESGGGLVQAGGSLRLSCAASGSTFPWNAMGWHRQAPGKERELVAAISKSGGRTYYADSVKGRFTISRDNAKNTVYLQMNSLRPEDTAVYYCNALGSLDGRYGYWGQGTQVTVSS", "polyreactivity (PSR sort gate)": "high polyreactivity"},
      {"sequence": "QVQLVESGGGLVQAGGSLRLSCAASGSTFPWNAMGWYRQAPGKERELVAAISSGGSTNYADSVKGRFTISRDNAKNTVYLQMNSLKPEDTAVYYCNAYYWSDSRGKYDYWGQGTQVTVSS", "polyreactivity (PSR sort gate)": "low polyreactivity"},
      {"sequence": "QVQLVESGGGLVQAGGSLRLSCAASGSTFPYNAMGWYRQAPGKERELVAAITSAGGTNYADSVKGRFTISRDNAKNTVYLQMNSLKPEDTAVYYCAADGSGYYDWYYYWGQGTQVTVSS", "polyreactivity (PSR sort gate)": "low polyreactivity"},
      {"sequence": "QVQLVESGGGLVQAGGSLRLSCAASGSTFPYNAMGWYRQAPGKERELVAVITTVGSTYYADSVKGRFTISRDNAKNTVYLQMNSLKPEDTAVYYCAAANTQSPGYDYWGQGTQVTVSS", "polyreactivity (PSR sort gate)": "low polyreactivity"},
      {"sequence": "QVQLVESGGGLVQAGGSLRLSCAASGSTFPYNAMGWYRQAPGKEWELVAAISQSGGSTYYADSVKGRFTISRDNAKNTVYLQMNSLKPEDTAVYYCATDQSLLAHYDYWGQGTQVTVSS", "polyreactivity (PSR sort gate)": "low polyreactivity"},
      {"sequence": "QVQLVESGGGLVQAGGSLRLSCAASGSTFPYNVMGWYRQAPGKEREFVAAISSSSGSTYYADSVKGRFTISRDNAKNTVYLQMNSLKPEDTAVYYCARRHPRQRQDGKVDYWGQGTQVTVSS", "polyreactivity (PSR sort gate)": "low polyreactivity"},
      {"sequence": "QVQLVESGGGLVQAGGSLRLSCAASGSTFPYVMGWSRQAPGKERELVAAISQRTGSTYYADSVKGRFTSSRDNAKNTVYLQMNSLKPEDTAVYYCAKPGYLRPSRYDYWGQGTQVTVSS", "polyreactivity (PSR sort gate)": "high polyreactivity"},
      {"sequence": "QVQLVESGGGLVQAGGSLRLSCAASGSTFPYVMGWYRQAPGKERELVAAISWSGTSTYYADSVKGRFTISRDNAKNTVYLQMNSLKPEDTAVYYCNVVYRVVSPSGGGYWGQGTQVTVSS", "polyreactivity (PSR sort gate)": "high polyreactivity"},
      {"sequence": "QVQLVESGGGLVQAGGSLRLSCAASGSTFPYYALGLYRQAPGKERELVAAISRGGGITYYADSVKGRFSISRDNAKNTVYLQMNCLKPEDTAVYYCAAYTAAEQGYNYWGQGTQVTVSS", "polyreactivity (PSR sort gate)": "high polyreactivity"},
      {"sequence": "QVQLVESGGGLVQAGGSLRLSCAASGSTFPYYAMGWYRQAPWKERELVAAIRRRTGSTHYADSVKGRFSISRDNAMNTVYLQMNSLKQEDTAFYYCAADVSYRGNGHGYWGQGTQVNVSS", "polyreactivity (PSR sort gate)": "low polyreactivity"}
    ]}
  ]
}
